The target of the test is GSK3β as used in the surface plasmon resonance (SPR) binding assays (Homo sapiens (Human), UniProt P49841 1-420). The test can be described thus: SPR, stoichiometry inferred from the response. As to the method: Surface plasmon resonance (SPR) was used to determine whether peptide 2 directly binds to GSK3β. GSK3β SPR binding assays were carried out with peptide 1, peptide 2, the GSK3β inhibitor L803-MTS, and as a negative control, a peptide from the N-type calcium channel, CACNA1B (FIG. 6A). […] To identify the peptide 2 sequences that mediate this interaction with GSK3β, we designed overlapping 15-mer peptides that covered peptide 2 and tested their binding to GSK3β SPR (FIG. 16B).
Sequence of GSK3β as used in the surface plasmon resonance (SPR) binding assays (P49841 whole entry, form in doubt): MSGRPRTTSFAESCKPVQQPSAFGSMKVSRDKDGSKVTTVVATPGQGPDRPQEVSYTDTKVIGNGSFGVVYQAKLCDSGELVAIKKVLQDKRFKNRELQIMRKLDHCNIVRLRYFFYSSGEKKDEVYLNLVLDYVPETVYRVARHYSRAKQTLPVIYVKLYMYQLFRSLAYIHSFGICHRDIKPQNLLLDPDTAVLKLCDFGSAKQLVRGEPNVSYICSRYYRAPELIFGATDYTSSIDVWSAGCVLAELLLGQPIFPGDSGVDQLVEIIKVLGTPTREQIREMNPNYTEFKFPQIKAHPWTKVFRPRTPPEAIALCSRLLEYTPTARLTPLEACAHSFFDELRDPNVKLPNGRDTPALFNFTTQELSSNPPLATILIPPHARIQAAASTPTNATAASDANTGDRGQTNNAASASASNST

On to PADIASLPGFQDTFTSSFSFIQLSLGAAGERGEAEGCLPSREAE (Synthetic peptide (Chi Scientific)) [Mouse DISC1 peptide 2 (195-238aa)], for which the peptide-protein ratio is 2 peptide:protein.

B1: Murine DISC1 peptide 3 (15-mer, mDISC1 amino acids 211 to 225) (peptide)
peptide: SFSFIQLSLGAAGER
notes: One of the overlapping 15-mer peptides that cover peptide 2; also called number 43; DISCtide2
As to B1, the peptide-protein ratio is 2 peptide:protein.
